The assay deals with rAAV9 vector (AAV9 capsid: full, intermediate and empty capsids) comprising a mini-dystrophin transgene (adeno-associated virus serotype 9 (AAV9)). Kind of assay: affinity chromatography lifecycle study, unbound vg in flow through, resin challenge 7.5x10^13 vg/mL resin.

In the case of “POROS CaptureSelect AAV9 affinity resin ligand (VHH)”, the % unbound vg is less than 2%.

The values above are taken from patent publication US20240043869A1.
